# Key:
# [1] = including hypothalamic-pituitary suppression; cited from earlier work
# patients [2] = assay: Adverse events in patients treated with MDX-010 in clinical protocols; type: in vivo
# Source text: As noted above, these adverse events are an expected consequence of inhibiting CTLA-4 function. Immune-mediated events are adverse events associated with drug exposure and consistent with an immune-based mechanism of action. In terms of organ system involvement, these events have primarily involved the GI tract (diarrhea and colitis) or the skin (rash and pruritis). Diarrhea due to treatment with MDX-010 ranges from mild to very severe and may become life-threatening. Most cases of diarrhea and colitis have resolved with symptomatic treatment or corticosteroid intervention without known sequelae. Upper GI tract involvement including ileitis, duodenitis, and esophagitis has been observed.
# To date, 6 patients in total have experienced gastrointestinal perforation or bleeding requiring colectomy following treatment with MDX-010. Two of these patients had melanoma (representing 0.6% of all patients with melanoma enrolled in MDX-010 related protocols), while four patients had renal cell carcinoma (representing 7% of all patients with renal cell carcinoma enrolled in MDX-010 related protocols). One of the patients with melanoma also received concomitant dacarbazine. After developing diarrhea, they initially appeared to improve on intravenous steroids, but their symptoms worsened after they were tapered off the steroids, and stool cultures were positive for Clostridium difficile, requiring aggressive medical treatment. The patient also developed laboratory evidence of disseminated intravascular coagulopathy (DIC), and required plasma and platelet transfusions. […] The patient's post-operative course was complicated by depression and malnutrition without evidence of systemic vasculitis. The patient developed pneumonia and subsequently died.
# In the renal study (MDX010-011), one patient had GI bleeding, which was treated with a colectomy. The bleeding developed after a single dose of MDX-010. The other 3 events in the MDX010-011 study occurred after the patients received 4 to 6 doses of MDX-010. One patient with a bowel perforation was successfully treated with a colectomy and an ostomy. Subsequently, the bowel was re-functionalized. The patient was taken off steroids and has maintained a partial response to their malignancy. […] The diagnosis of colitis was only made on autopsy. The third patient with a bowel perforation continued to have diarrhea and was intermittently treated with steroids. Upon the diagnosis of a non-catastrophic perforation, the patient declined surgical intervention based on the overall progression of disease. The patient opted for hospice care and ultimately died. The fourth patient developed symptoms of colitis after a single dose of MDX-010, had only intermittent steroid treatment, and ultimately underwent a colectomy for uncontrolled bleeding. Of the 3 patients who received steroid therapy, the initiation of steroid therapy was delayed due to poor patient reporting of symptoms to the investigator, and the therapy was compromised by patient non-compliance with the recommended treatment.
# The overall incidence of gastrointestinal perforations and/or colectomies is less than 2% of patients.
# Skin toxicity in patients receiving MDX-010 has manifested as rash and pruritis, and, when biopsied, pleomorphic infiltrates have been noted in the skin. Some patients have developed vitiligo associated with MDX-010 administration. In our studies, there have been 7 cases of hypopituitarism reported to date, presumably due to immune-mediated hypophysitis. […] The effect of high-dose corticosteroid therapy on reversing pituitary abnormalities is unknown. Ocular inflammation, specifically Grade 2 or Grade 3 episcleritis or uveitis, has been reported in 6 patients; it has occurred in conjunction with GI symptoms in 4 of these patients. In addition, primary adrenal insufficiency has been noted in 3 patients. […]
# patients [3] = assay: Clinical (antitumor) response in patients treated with MDX-010; type: in vivo, human
# Source text: These adverse events, likely reflect a loss of tolerance to some self antigens, or a hyper-response to bacterial antigens present in the gut or skin, and are therefore mechanism-related and may be directly linked to the clinical antitumor activity of MDX-010.
# Of note, most responses observed to date have occurred by Week 12, even in patients with initial progression. As such, all patients who receive at least one dose of MDX-010 (BMS-734016) will, whenever possible, first return for the tumor re-staging assessment at Week 12 (and not before). After patients have been treated in the Induction Phase, they will either enter the Maintenance Phase or the Follow-up Phase, depending upon whether or not they meet eligibility criteria to enter the Maintenance Phase.
molecule,measurement,setting,value
"CCCC1O[C@@H]2C[C@H]3[C@@H]4CCC5=CC(=O)C=C[C@]5(C)[C@H]4[C@@H](O)C[C@]3(C)[C@]2(C(=O)CO)O1 (stereo partly drawn) [Budesonide, budesonide]",adverse effects versus systemically-acting corticosteroids,[1],fewer adverse effects
"MDX-010: human monoclonal anti-CTLA-4 antibody (Medarex, Inc.), corresponds to monoclonal antibody 10D1; also referred to as ipilimumab",overall incidence of gastrointestinal perforations and/or colectomies,patients [2]; all patients,less than 2 % of patients
same,patients in total who experienced gastrointestinal perforation or bleeding requiring colectomy,"patients [2]; following treatment with MDX-010, all protocols, to date",6 patients
same,ocular inflammation (Grade 2 or Grade 3 episcleritis or uveitis) reported,"patients [2]; human, in vivo",6 patients
same,primary adrenal insufficiency noted,"patients [2]; human, in vivo",3 patients
same,ocular inflammation occurring in conjunction with GI symptoms,patients [2]; of the 6 patients with ocular inflammation,4 patients
same,gastrointestinal perforations or colectomies in patients with breast or prostate cancer,patients [2]; patients with breast or prostate cancer,no reported gastrointestinal perforations or colectomies
same,"gastrointestinal perforation or bleeding requiring colectomy, share of all patients with melanoma enrolled",patients [2]; patients with melanoma in MDX-010 related protocols,0.6%
same,"gastrointestinal perforation or bleeding requiring colectomy, share of all patients with renal cell carcinoma enrolled",patients [2]; patients with renal cell carcinoma in MDX-010 related protocols,7%
same,cases of hypopituitarism reported,"patients [2]; presumably due to immune-mediated hypophysitis, to date",7 cases
same,time by which most responses observed to date have occurred,patients [3]; even in patients with initial progression,≤ 12 Week
same,patients developing an autoimmune-like adverse event who also experienced a clinical response,patients [3]; in one of the studies,~45%
